Source: patent publication US20030049702A1 (BURNHAM INSTITUTE, published 2003)

Key:
Assay in all cases: GST pull-down of in vitro translated 35S-labeled protein, autoradiography; '-' = no interaction
[1] = target: Dr-4 (in vitro translated, 35S-labeled) (human, UniProt O00220 1-468, limits assumed)
[2] = target: T1, FADD (in vitro translated, 35S-labeled) (human, UniProt Q13158 1-208)
T1 sequence (looked up): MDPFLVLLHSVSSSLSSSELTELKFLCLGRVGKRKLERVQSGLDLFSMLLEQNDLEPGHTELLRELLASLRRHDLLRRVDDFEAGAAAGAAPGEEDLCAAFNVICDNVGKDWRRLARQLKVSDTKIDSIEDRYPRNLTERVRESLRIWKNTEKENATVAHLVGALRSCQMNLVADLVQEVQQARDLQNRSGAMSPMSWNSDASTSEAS

[3] = target: RAIDD (in vitro translated, 35S-labeled) (human, UniProt P78560 1-199)
Sequence of RAIDD (in vitro translated, 35S-labeled) (P78560 whole entry): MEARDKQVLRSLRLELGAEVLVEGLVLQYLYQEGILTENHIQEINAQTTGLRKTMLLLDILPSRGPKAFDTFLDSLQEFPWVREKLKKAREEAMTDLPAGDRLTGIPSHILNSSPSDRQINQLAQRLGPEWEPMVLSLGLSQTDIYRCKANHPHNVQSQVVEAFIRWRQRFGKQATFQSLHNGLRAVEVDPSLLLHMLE

[4] = target: T2, TNF-RI (in vitro translated, 35S-labeled) (human, UniProt P19438 1-455, limits assumed)
T2 construct: also called TNFR1
T2 sequence (looked up): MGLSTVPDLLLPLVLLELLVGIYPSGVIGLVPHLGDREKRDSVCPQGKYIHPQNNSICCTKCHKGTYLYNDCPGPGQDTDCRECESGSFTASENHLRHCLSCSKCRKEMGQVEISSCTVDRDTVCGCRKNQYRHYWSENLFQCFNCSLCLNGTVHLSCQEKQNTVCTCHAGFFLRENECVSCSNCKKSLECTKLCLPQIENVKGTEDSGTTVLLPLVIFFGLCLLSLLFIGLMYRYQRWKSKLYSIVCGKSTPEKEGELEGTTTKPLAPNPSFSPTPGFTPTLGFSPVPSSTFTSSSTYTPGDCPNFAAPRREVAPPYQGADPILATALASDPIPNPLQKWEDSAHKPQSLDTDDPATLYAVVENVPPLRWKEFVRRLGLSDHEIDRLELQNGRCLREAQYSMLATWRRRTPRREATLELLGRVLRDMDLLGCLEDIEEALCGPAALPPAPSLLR

[5] = target: c-Flip (in vitro translated, 35S-labeled) (human, UniProt O15519 1-480)
Sequence of c-Flip (in vitro translated, 35S-labeled) (O15519 whole entry): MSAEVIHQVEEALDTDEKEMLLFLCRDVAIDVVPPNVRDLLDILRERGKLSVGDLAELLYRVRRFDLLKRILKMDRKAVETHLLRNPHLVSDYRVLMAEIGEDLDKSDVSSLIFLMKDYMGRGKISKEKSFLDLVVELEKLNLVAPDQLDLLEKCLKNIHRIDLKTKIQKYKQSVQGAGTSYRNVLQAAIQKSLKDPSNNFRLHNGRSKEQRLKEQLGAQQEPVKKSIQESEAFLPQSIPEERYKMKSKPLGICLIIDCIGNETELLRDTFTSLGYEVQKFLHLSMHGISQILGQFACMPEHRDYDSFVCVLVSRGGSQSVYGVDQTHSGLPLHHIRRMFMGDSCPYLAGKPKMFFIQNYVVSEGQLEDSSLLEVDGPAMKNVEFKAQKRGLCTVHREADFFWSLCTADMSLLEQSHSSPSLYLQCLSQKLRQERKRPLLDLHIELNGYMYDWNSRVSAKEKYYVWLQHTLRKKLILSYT

[6] = target: T3, Fas (in vitro translated, 35S-labeled) (human, UniProt P25445 1-335, limits assumed)
T3 construct: also called Fas [CD95]
T3 sequence (looked up): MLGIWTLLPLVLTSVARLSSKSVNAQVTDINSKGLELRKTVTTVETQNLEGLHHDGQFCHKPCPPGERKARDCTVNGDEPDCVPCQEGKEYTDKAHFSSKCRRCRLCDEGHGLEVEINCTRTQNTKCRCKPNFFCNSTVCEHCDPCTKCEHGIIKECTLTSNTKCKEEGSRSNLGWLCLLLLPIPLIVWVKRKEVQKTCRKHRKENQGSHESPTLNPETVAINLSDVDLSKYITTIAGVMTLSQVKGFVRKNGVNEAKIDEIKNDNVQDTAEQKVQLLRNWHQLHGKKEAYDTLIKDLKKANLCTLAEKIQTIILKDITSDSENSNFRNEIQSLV

[7] = target: T4, RIP (in vitro translated, 35S-labeled) (human, UniProt Q13546 1-671, limits assumed)
T4 sequence (looked up): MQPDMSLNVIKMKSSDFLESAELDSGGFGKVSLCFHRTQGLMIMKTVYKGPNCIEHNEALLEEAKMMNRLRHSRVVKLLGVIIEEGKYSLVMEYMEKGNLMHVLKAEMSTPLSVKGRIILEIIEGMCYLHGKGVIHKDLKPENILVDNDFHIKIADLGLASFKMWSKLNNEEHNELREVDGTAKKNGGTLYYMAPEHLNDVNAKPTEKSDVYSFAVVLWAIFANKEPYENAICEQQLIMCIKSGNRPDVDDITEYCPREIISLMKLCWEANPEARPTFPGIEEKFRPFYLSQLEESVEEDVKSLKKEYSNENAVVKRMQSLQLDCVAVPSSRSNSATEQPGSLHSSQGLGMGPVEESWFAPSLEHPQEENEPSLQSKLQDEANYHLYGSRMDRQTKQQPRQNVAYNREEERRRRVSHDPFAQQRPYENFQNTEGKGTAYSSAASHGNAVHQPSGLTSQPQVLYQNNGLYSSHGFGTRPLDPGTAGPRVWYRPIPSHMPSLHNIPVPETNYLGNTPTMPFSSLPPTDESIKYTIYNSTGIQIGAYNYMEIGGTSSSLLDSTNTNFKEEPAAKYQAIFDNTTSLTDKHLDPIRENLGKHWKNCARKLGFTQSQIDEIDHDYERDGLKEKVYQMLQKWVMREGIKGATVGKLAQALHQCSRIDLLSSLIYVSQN

[8] = target: Dr-5 (in vitro translated, 35S-labeled) (human, UniProt O14763 1-440, limits assumed)

Measured: binding result

B1: GST-CD40 (cytosolic domain) (other, UniProt P25942 216-277, looked up)
chain: KKVAKKPTNKAPHPKQEPQEINFPDDLPGSNTAAPVQETLHGCQPVTQEDGKESRISVQERQ
notes: domain: cytosolic domain; Control fusion protein; not shown: glutathione S-transferase
no binding: all assays above
